A word on the EC50: it is the concentration at which the effect is half-maximal.

The results in this text go back to patent US20210347908A1 (ELPISCIENCE SUZHOU BIOPHARMA, published 2021).

Numbering of substitutions follows the chain as printed. Where two headings read alike, the source gives them in different places.

Assay [1] addresses T1, Fc tagged human SIRPα v2 ECD recombinant protein (human).
T1 construct: range 1-369; cloned range M1-R369 includes the signal peptide; also called hSIRPα V2
The assay can be described thus: ELISA. A digest of the protocol: (§1)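 Readout is OD 450 nm, with EC₅₀ derived from it, after TMB development for 15 min at RT and an HCl stop. Before that, antibodies were bound to coated Fc-tagged human SIRP ECD antigens for 1 h at 37 °C, followed by 1 h at 37 °C with HRP-labelled anti-mouse or anti-human IgG secondary.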

Assay [2] deals with T2, Fc tagged human SIRPβ ECD recombinant protein (human, UniProt O00241 30-371).
T2 construct: range 1-371; cloned range includes the signal peptide; also called hSIRPβ; not shown: human IgG Fc region (hFc) of the pCPC vector
The assay can be described thus: ELISA. An outline of the steps:
as §1
In general terms: ELISA stands for enzyme-linked immunosorbent assay.

Assay [3] concerns the target T3, full length cyno SIRPα stably expressed on CHOK1 cells (cynomolgus monkey, UniProt A0A2K5VYQ9 31-507).
T3 construct: whole, on cells; also called CHOK1-cyno SIRPα-2A2 cells; CHOK1-cyno SIRPα
T3 sequence: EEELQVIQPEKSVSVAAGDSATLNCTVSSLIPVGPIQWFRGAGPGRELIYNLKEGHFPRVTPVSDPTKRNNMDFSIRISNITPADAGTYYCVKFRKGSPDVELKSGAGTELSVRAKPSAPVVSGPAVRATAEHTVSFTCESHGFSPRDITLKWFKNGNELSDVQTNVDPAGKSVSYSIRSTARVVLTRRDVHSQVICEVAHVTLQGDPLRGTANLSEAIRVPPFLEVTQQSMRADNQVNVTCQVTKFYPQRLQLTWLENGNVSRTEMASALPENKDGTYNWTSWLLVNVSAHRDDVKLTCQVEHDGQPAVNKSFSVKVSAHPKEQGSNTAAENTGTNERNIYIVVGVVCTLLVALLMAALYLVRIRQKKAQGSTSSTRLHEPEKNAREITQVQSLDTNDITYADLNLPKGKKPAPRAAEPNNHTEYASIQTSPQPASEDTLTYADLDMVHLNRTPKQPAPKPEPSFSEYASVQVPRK
Nature of the assay: FACS on CHOK1 cells. A digest of the protocol: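 Geometric median fluorescence gave EC50 values. CHOK1 lines stably carrying full-length SIRPα (2×10⁵ cells) were incubated with antibody for 1 h at 4 °C, washed, and stained with labelled anti-mouse or anti-human IgG for 1 h at 4 °C.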

In assay [4] the target is T4, biotin labeled soluble human SIRPα v1 ECD recombinant protein (human, UniProt P78324 31-373, biotin labeled).
T4 construct: extracellular domain
Nature of the assay: competitive ELISA; competitor 002. The protocol:
(§2) Competitive ELISA assay was used for epitope binning of 9 functional antibodies. Briefly excessive competitor antibody and biotin labeled soluble human SIRPα v1 ECD recombinant protein were co-incubated with ELISA microplate coated antibody. After washing, HRP-SA was added and incubated at 37° C. for 1 hour. Then, […] of TMB solution (Biotechnology) was added. After incubation for 15 minutes at room temperature, the reaction was stopped by the addition of […] of 1N HCl. OD 450 nm was read. Competition ratio was calculated. The antibodies that can compete each other for binding to SIRPα have the similar binding epitope.

Assay [5] concerns the target T4, biotin labeled soluble human SIRPα v1 …. Nature of the assay: competitive ELISA; competitor 060. The protocol:
as §2

For assay [6] the target is unchanged. Nature of the assay: competitive ELISA; competitor KWAR23. The protocol:
as §2

Assay [7] addresses T3, full length cyno SIRPα stably expressed …. Nature of the assay: FACS on CHOK1 cells. The source holds these as a separate data set.
Assay [8] addresses T4, biotin labeled soluble human SIRPα v1 …. The assay can be described thus: competitive ELISA; competitor 001. The protocol: as §2
In assay [9] the target is T5, full length C57BL/6 mouse SIRPα stably expressed on CHOK1 cells (mouse (C57BL/6), UniProt P97797 32-513).
T5 construct: whole, on cells; also called CHOK1-C57BL/6 mouse SIRPα-2.22 cells
T5 sequence (looked up): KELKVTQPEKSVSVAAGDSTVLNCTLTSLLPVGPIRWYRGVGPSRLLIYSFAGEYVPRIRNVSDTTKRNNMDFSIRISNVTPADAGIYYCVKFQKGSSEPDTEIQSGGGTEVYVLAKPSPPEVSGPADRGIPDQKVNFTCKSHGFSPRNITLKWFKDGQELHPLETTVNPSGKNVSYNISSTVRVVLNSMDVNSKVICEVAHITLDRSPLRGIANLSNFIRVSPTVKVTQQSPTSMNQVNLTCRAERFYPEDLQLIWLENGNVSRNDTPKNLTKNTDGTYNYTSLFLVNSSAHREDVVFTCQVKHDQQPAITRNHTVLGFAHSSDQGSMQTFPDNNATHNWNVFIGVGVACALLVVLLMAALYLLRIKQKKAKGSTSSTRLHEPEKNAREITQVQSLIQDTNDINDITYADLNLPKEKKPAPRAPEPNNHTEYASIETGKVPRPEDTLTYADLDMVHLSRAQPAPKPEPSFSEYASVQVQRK
Nature of the assay: FACS on CHOK1 cells.

T2 sequence (O00241 30-371 limits assumed, form in doubt): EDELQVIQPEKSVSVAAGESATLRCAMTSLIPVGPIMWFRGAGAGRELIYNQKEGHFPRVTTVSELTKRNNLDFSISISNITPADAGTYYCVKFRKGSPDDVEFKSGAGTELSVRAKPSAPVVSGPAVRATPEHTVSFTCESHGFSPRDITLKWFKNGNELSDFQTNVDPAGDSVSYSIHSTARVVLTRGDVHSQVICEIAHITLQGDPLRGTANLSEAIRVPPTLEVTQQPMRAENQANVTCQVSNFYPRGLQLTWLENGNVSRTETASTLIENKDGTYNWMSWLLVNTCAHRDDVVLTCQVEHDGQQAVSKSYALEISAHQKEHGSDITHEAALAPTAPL
T4 sequence (P78324 31-373): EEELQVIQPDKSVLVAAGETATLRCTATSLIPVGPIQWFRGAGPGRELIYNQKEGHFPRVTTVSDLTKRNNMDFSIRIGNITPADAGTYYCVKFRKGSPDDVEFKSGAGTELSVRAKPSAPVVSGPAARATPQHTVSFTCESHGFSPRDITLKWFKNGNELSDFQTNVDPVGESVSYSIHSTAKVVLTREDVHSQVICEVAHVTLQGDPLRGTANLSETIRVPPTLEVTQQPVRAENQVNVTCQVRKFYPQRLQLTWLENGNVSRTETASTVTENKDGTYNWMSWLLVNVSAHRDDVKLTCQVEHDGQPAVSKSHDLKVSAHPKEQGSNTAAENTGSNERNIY

B1: chimeric antibody 074c (antibody, V domains shown)
VH: QVQLQQPRAELVKPGASVMLSCKASGYTFSSYWIHWVRQGPGQGLEWIGLIHPNSGNTDCSETFKNKATLTVDTSSSTAYMQLSSLASEDSAVYYCARDGASYDWFVHWGQGTLVTVSA
VL: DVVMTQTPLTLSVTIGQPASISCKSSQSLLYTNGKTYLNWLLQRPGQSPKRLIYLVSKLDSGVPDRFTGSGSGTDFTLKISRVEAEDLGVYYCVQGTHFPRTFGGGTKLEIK
Take B1: the values for the concentration giving a half-maximal response (EC50) in assay [1] and in [2] were 0.14 nM and 0.11 nM, respectively. Moreover, in assay [3], the “MFI at 10 nM” value came out at 12200 MFI.

B2: chimeric antibody 060c (antibody, V domains shown)
VH: QVQLKESGPGLVAPSESLSITCTVSGFSLTNYDISWIRQSPGKGLEWLGVIWTGGDTNFNSAFMSRLSISKDKSKSQVFLKLNSLQTDDTAIYYCVRVQYFGGSYGPMDYWGQGISVTVSS
VL: DIQMTQASSYLSVSLGGRVTITCEASDHINDWLAWYQQTPGNAPRLLISGATSLETGVPSRFSGSGSGKDYTLSITSLQTEDIATYYCQQYWNTPLTFGAGTRLELK
For the molecule B2, the EC50 in assay [2] came to 0.24 nM. The binding result in [3] is recorded as “no binding (tested: 10 nM)”.

B3: chimeric antibody 001c (antibody, V domains shown)
VH: EVKLEESGGGLVQPGGSMKLSCVASGFTFRNYWMNWVRQSPERGLEWIAEISLKSNTYATHYAESVKGRFAISRDGSKSSFYLQMNDLRAEDTGIYYCTTFTKVVADWHLDVWGAGTTVTVSS
VL: DVLMTQTPLSLPVSLGDQASISCRSSQNIVHSNGNTYLEWYLQKPGQSPKLLIYKVSNRFSGVPDRFSGSGSGTDFTLRISRVEAEDLGVYYCFQGSHVPFTFGSGTKLEIK
B3: the EC50 in assay [1] worked out at 0.09 nM; in assay [2] it was 0.12 nM. Further, the “MFI at 10 nM” value in assay [3] came to 24900 MFI.

B4: chimeric antibody 002c (antibody, V domains shown)
VH: B3 VH with K19I, S52T, G76D, A90P
VL: B3 VL with V56I, K112Q
Turning to B4, the concentration for a half-maximal effect (EC50) came out at 0.06 nM in assay [1] and 0.11 nM in assay [2]. Besides, the “MFI at 10 nM” value in assay [3] was 17100 MFI.

B5: chimeric antibody 032c (antibody, V domains shown)
VH: B3 VH with K3R, A24V, S52T, G76D, A90P
VL: B3 VL with S14N
In the case of B5, the EC50 in assay [1] came out at 0.11 nM; in [2] it was 0.12 nM. Besides, in assay [3], the “MFI at 10 nM” value stood at 19000 MFI.

B6: reference antibody 29-AM4-5 (antibody, V domains shown)
VH: EVQLVESGGGLVQPGGSLRLSCAASGFNISYYFIHWVRQAPGKGLEWVASVYSSFGYTYYADSVKGRFTISADTSKNTAYLQMNSLRAEDTAVYYCARFTFPGLFDGFFGAYLGSLDYWGQGTLVTVSS
VL: DIQMTQSPSSLSASVGDRVTITCRASQSVSSAVAWYQQKPGKAPKLLIYSASSLYSGVPSRFSGSRSGTDFTLTISSLQPEDFATYYCQQAVNWVGALVTFGQGTKVEIK
Turning to B6, the “% Competition” value was determined as 94% in [4], 10% in assay [5], 93% in assay [6] and 97% in assay [8]. Moreover, the EC50 in assay [1] and in assay [2] was 0.08 nM throughout. The “MFI at 10 nM” value in [3] is 27600 MFI; in [7], 37900 MFI.

B7: chimeric antibody 050c (antibody, V domains shown)
VH: QIQLVQSGPELKKPGETVKISCKASGYTFTHYSMHWVKQAPGKGLKWMGWINTETAEPTYVDDFKGRFAFSLEASASTAFFQINNLKNEDTATYFCARGGLRQGDYWGQGTTLTVSS
VL: QIVLTQSPPIMSASPGEKVTLTCSATSSVSASYLYWFQQKPGSSPKLWIYSTSNLASGVPARFSGSGSGTSYSLTISNMEPADAASYFCHQWSSYPYTFGGGTKLEIK
For B7, the EC50 was found to be 0.1 nM in [1] and 0.08 nM in assay [2]. The “MFI at 10 nM” value in [3] was found to be 20500 MFI.

B8: chimeric antibody 055c (antibody, V domains shown)
VH: EVKLVESEGGLVQPGDSMKLSCTASGFTFSDYFMTWIRQVPEKGLEWIANVNYDGRSTYYLDSLKSRFIISRDNANNILYLQMSSLKSEDTATYYCAREGSQTPLYAVDYWGQGTSVTVSS
VL: DIVMTQSQKFMSTTVGDRVNITCKASQNVGTAVAWYQQKPGQSPKLLIYLASNRYTGVPDRFTGSGSGTDFTLTVSDMRSEDLADYFCQQYSIYPFTFGSGTKLEIK
For B8, in assay [1], the EC50 was determined as 0.11 nM. Also, the “MFI at 10 nM” value in assay [3] was 8060 MFI.

B9: chimeric antibody 022c (antibody, V domains shown)
VH: QIQLVQSGPELKKPGETVKISCKASGYTFTDYAMHWVKQAPGKGLKWMGWKNTETGESTYAEDFKGRFAFFLETSASTAYLQINNVKNEDTATYFCARGGYGSNYVMDYWGQGTSVIVSS
VL: DIQMTQSSSSFSVSLGDRVTITCKASEDIYNRLAWYQQKPGNAPRLLISGATSLETGVPSRFSGSGSGKDYTLSITSLQTEDVATYYCQQYWNSPRTFGGGTKLEIK
Turning to B9, the EC50 was 0.11 nM in assay [1] and 0.08 nM in assay [2]. For the same molecule, in assay [3], the “MFI at 10 nM” value amounted to 23500 MFI.

B10: chimeric antibody 035c (antibody, V domains shown)
VH: QIQLVQSGPELRKPGETVKISCKASGYSFTNYAMNWVKQAPGKVLKWMGFINTYTGEPTYADDFKGRFAFSLETSASTAYLQINNLKNEDTATYFCTRTRGYYDFDGGAFDYWGQGTSLTVSS
VL: DIVMTQSQKFMSTSIGDRVSVTCKASQNVGTHLAWYQQKPGQSPKALIFSASYRYIGVPDRFTGSGSGTDFTLTITNVQSEDLAEYFCQQYNTYPLTFGAGTKLELK
As to B10, the EC50 in [1] turned out to be 0.08 nM; in [2], 0.08 nM; in assay [7], 0.42 nM. In assay [3], the “MFI at 10 nM” value came to 24600 MFI. In [9], the “MFI at 2 ug/ml” value is 310 MFI.
